Source: patent US20140162285A1, “Methods of Modulating Vesicular Trafficking” (The General Hospital Corporation, priority 2009, published 2014)
“Also recorded” adds a separate entry of the source. Square brackets hold non-standard residues; d marks the D form. Ends that are not written are not given here. pS = N[C@@H](COP(=O)(O)O)C(=O)O

B1: a2N-N: N-terminal part of a2N, amino acid residues 1-133 of the mouse V-ATPase a2-subunit, in vitro translated (protein)
chain: MSGSHHHHHHSSGIEGRGRLIKMTMGSLFRSESMCLAQLFLQSGTAYECLSALGEKGLVQFRDLNQNVSSFQRKFVGEVKRCEELERILVYLVQEITRADIPLPEGEASPPAPPLKHVLEMQEQLQKLEVELREVTKNKEKLRKNLLELVEYTHMLR
B2: a2N-C: C-terminal part of a2N, amino acid residues 134-393 of the mouse V-ATPase a2-subunit, in vitro translated (protein)
chain: MSGSHHHHHHSSGIEGRGRLIKMTVTKTFLKRNVEFEPTYEEFPALENDSLLDYSCMQRLGAKLGFVSGLIQQGRVEAFERMLWRACKGYTIVTYAELDECLEDPETGEVIKWYVFLISFWGEQIGHKVKKICDCYHCHIYPYPNTAEERREIQEGLNTRIQDLYTVLHKTEDYLRQVLCKAAESVCSRVVQVRKMKAIYHMLNMCSFDVTNKCLIAEVWCPEVDLPGLRRALEEGSRESGATIPSFMNTIPTKETPPTLIRTNKFTEGFQNIVDAYGVGSYRE

Legend:
6His-a2N(wt) = biological target: T1, 6His-a2N(wt) (Mus musculus, UniProt P15920); test: ARNO-derived peptide pull-down with in vitro translated 6His-a2N(wt); type: binding; conditions: 7 nmol biotin-tagged peptide on streptavidin-agarose beads
T1 construct: amino acid residues 1-402 of mouse V-ATPase a2-subunit (a2N1-402); made in house; host or cells: cell-free in vitro translation
T1 sequence (P15920 1-402): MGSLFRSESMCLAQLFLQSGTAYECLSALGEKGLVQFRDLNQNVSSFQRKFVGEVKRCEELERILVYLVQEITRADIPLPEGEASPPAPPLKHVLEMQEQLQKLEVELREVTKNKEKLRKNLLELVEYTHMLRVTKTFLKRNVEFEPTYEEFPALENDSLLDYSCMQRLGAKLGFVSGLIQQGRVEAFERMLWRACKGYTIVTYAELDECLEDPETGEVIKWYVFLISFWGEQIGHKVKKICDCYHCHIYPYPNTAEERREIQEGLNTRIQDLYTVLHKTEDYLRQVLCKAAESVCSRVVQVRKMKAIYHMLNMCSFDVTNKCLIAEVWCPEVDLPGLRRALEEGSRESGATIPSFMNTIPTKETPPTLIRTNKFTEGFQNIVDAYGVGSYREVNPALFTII
Procedure: FIGS. 4B-C are images of Western blots showing (4B) the results of peptide pull-down assays for interaction of a2N with Sec7-PH-linker of ARNO and (4C) phosphorylation-dependent interaction of a2N with ARNO-derived peptide corresponding to the PB-domain of ARNO. Corresponding ARNO-derived peptides were immobilized on streptavidin-beads and incubated with in vitro translated recombinant a2N. Interacting complexes were eluted and analyzed by Western blotting using anti-a2N antibodies.
ARNO-derived peptides, equal amounts (7 nmol) of biotin-tagged synthetic peptides were also immobilized on streptavidin-agarose beads followed by incubation with 10 μl of in vitro translated 6His-a2N(wt) recombinant protein. Pull-down experiments and SDS-PAGE analysis were performed as described above and interacting 6His-a2N/ARNO-derived-peptide complexes were analyzed by Western blotting using polyclonal anti-a2N antibody. All experiments were repeated at least three times with similar results.

GST-ARNO(wt) = biological target: T2, GST-ARNO(wt) (Homo sapiens, UniProt Q99418); test: recombinant protein pull-down of in vitro translated a2N-N / a2N-C with GST-ARNO(wt); type: binding; conditions: 35S-labeled in vitro translated protein, autoradiography
T2 construct: i) 1-400aa, full length ARNO(wt); made in house; host or cells: E. coli BL21(DE3)
T2 sequence (Q99418 1-400): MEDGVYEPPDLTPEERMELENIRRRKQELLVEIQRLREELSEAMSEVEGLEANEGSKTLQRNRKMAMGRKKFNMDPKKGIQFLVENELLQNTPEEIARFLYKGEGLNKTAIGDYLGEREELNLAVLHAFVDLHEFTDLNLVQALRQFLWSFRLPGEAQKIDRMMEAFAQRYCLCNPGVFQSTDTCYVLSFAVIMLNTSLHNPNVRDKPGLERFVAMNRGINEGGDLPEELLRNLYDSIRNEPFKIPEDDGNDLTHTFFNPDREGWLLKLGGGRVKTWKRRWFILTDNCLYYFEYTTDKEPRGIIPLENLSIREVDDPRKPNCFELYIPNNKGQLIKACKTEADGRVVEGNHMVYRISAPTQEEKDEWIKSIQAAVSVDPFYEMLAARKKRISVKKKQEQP
Text: FIG. 2C is an image of a Western blot showing that both the amino terminus (a2N-N) and carboxyl terminus (a2N-C) of the cytosolic tail of the a2-subunit interact with ARNO(wt). Left panel, a pull-down (PD) of in vitro translated metabolically labeled a2N-N (a2N1-133) with recombinant GST-only and GST-ARNO(wt) used as a baits. […] Right panel, a pull-down (PD) of in vitro translated metabolically labeled a2N-C (a2N134-393) with recombinant GST-only and GST-ARNO(wt) used as a baits.
The purified recombinant GST-ARNO(wt) and GST-tagged ARNO domain constructs ([…]) were incubated with 10 μl of in vitro translated 6His-a2N recombinant protein at 4° C. for 2 hours in 500 μl of binding buffer (10 mM HEPES, 1 mM EDTA, 1 mM DTT, 100 mM NaCl, 10% glycerol, 0.1% NP-40) with gentle rotation. Then the interacting recombinant proteins were immobilized on glutathione beads by incubation with 50 μl of 50% glutathione Sepharose 4B slurry for 2 hours at 4° C. The beads were collected by centrifugation and washed 5 times with 500 μl ice-cold binding buffer. Interacting proteins were eluted by boiling in SDS-PAGE sample buffer for 10 min at 95° C., resolved by SDS-PAGE and analyzed by Western blotting using polyclonal anti-a2N antibodies. […]

Row | Molecule | interaction of ARNO-derived peptide with a2N (6His-a2N(wt)) | interaction with GST-ARNO(wt) in pull-down (GST-ARNO(wt))
1 | ARNO375-440^P: phosphorylated version (Ser392) of the ARNO PB-domain peptide, SEQ ID NO:33 (VSVDPFYEMLAARKKRI[pS]VKKKQEQP) | completely abolished | 
2 | B1 |  | could interact; also recorded: direct interaction
3 | B2 |  | could interact; also recorded: direct interaction
